{"source": "paper PMC4943950", "about": "“T4 Phage Tail Adhesin Gp12 Counteracts LPS-Induced Inflammation In Vivo” (Frontiers in Microbiology, 2016)", "proteins": {"B1": {"name": "T4 phage short tail fiber protein (tail adhesin) gp12, recombinant, His-tagged (natural protein, bacteriophage T4, UniProt P10930 1-527, looked up)", "chain": "MSNNTYQHVSNESRYVKFDPTDTNFPPEITDVQAAIAAISPAGVNGVPDASSTTKGILFIPTEQEVIDGTNNTKAVTPATLATRLSYPNATETVYGLTRYSTNDEAIAGVNNESSITPAKFTVALNNAFETRVSTESSNGVIKISSLPQALAGADDTTAMTPLKTQQLAIKLIAQIAPSETTATESDQGVVQLATVAQVRQGTLREGYAISPYTFMNSSSTEEYKGVIKLGTQSEVNSNNASVAVTGATLNGRGSTTSMRGVVKLTTTAGSQSGGDASSALAWNADVIQQRGGQIIYGTLRIEDTFTIANGGANITGTVRMTGGYIQGNRIVTQNEIDRTIPVGAIMMWAADSLPSDAWRFCHGGTVSASDCPLYASRIGTRYGGNPSNPGLPDMRGLFVRGSGRGSHLTNPNVNGNDQFGKPRLGVGCTGGYVGEVQIQQMSYHKHAGGFGEHDDLGAFGNTRRSNFVGTRKGLDWDNRSYFTNDGYEIDPESQRNSKYTLNRPELIGNETRPWNISLNYIIKVKE", "notes": "No step that removes the His-Tag is described; also called phage adhesin"}}, "target": "the molecule itself", "assay": "SDS-PAGE of the non-heated sample (SDS-resistant oligomer); purified gp12 final preparation, not heated before SDS-PAGE, ambient temperature; trimer band at 172.5 kDa", "data": [{"protein": "B1", "values": [{"measurement": "stoichiometry N", "value": 3}]}]}
